T1: CTCF (UniProt P49711 P49711:1-727)
T1 sequence: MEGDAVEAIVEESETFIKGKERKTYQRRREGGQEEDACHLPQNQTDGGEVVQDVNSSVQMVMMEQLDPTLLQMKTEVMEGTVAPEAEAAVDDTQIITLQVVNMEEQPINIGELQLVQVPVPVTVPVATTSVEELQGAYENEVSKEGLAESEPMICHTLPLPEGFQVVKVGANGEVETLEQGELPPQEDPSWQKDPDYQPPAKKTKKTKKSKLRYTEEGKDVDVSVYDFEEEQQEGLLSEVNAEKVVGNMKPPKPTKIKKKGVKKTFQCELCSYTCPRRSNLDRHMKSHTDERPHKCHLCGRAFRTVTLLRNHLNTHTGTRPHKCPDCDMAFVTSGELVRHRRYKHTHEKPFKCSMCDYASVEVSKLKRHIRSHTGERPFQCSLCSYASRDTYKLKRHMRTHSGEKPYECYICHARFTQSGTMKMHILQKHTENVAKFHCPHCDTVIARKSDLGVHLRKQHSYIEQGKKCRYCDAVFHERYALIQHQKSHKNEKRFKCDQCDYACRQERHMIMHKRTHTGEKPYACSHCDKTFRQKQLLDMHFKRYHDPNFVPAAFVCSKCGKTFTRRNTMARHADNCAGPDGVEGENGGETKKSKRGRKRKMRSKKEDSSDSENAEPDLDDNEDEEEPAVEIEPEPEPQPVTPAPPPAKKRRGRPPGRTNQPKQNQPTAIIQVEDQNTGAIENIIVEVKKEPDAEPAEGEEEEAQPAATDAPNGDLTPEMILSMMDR


Tests used:
CTCF [1] = molecular target: T1, CTCF; experiment: EMSA; 200 ng CTCF, 10 mM HEPES pH 7.3, 10 mM NaCl, 1 mM MgCl2, 5 ug tRNA, RT; settings: tags: Abnova H00010664-P01; label: 5' biotin on the reverse complementary strand
Protocol: (§1) All these biotin-labelled probes were incubated with 200 ng CTCF recombinant proteins (H00010664-P01, Abnova) in 20 μl 1× binding buffer (10 mM HEPES-KOH, pH 7.3, 10 mM NaCl, 1 mM MgCl₂, 1 mM DTT) with 5 μg tRNA carrier at room temperature for 30 min. The reactions were then loaded onto 6% Novex TBE gels (EC6265BOX, Thermo Fisher Scientific) and transferred to Bright Star-Plus positive charged membrane (AM10110, Thermo Fisher Scientific). Biotin-labeled probes were detected by Chemiluminescent Nucleic Acid Detection Module (89880, Thermo Fisher Scientific) using Odyssey Imaging System (LI-COR).
(§2) We next asked whether Brg1 or its associated factor could bind to Uhrt-eDNA hybrid. We first investigated the role in eDNA looping of CCCTC-binding factor (CTCF), a regulator protein essential for chromatin looping and three-dimensional structure formation. CTCF contains 11 highly conserved zinc finger domains, capable of binding to specific double-stranded DNA sequence to cause chromatin looping. We found a CTCF consensus binding motif (AGGGGGTGG; SEQ ID NO: 43) on eDNA near the conserved MEF2A and GATA4 sites. ChIP analysis of heart tissues verified CTCF was enriched on eDNA region in E13.5 hearts, whereas its occupancy on eDNA dropped by 42% in normal adult hearts, but was increased by 81% and restored to fetal levels by TAC, while CTCF protein levels remained unchanged. […]

CTCF [2] = molecular target: T1, CTCF; experiment: EMSA; mutation disrupted CTCF binding; settings: tags: Abnova H00010664-P01; label: 5' biotin
Protocol: as §1, §2

Binder	binding result (CTCF [1])	binding result (CTCF [2])
eDNA CTCF site dsDNA probe (dsDNA) DNA 1: GGTCAGCCACACAACAGAGGGGGTGGCACAGCTCTTGGGA DNA 2: TCCCAAGAGCTGTGCCACCCCCTCTGTTGTGTGGCTGACC	binds	
mutant CTCF site dsDNA probe (dsDNA) DNA 1: GGTCAGCCACACAACAGAAAAAATGGCACAGCTCTTGGGA DNA 2: TCCCAAGAGCTGTGCCATTTTTTCTGTTGTGTGGCTGACC		no binding
